Positions count from the first letter of the chain named. One block for each binder: values may come before it.
Tests used:
mouse WISE = target: T1, mouse WISE (mouse, UniProt Q9CQN4 24-206); test: KinExA solution equilibrium, rmuWise-coated beads
T1 construct: Recombinant purified protein; also called muWISE; mWISE
T1 sequence: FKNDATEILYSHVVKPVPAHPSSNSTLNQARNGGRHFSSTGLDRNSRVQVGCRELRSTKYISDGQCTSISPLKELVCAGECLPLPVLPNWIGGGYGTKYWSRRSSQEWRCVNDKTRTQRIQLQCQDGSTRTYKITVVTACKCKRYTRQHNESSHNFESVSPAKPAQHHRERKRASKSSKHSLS
Method: (§1) Binding of muAbs with rhuWise and rmuWise were tested on KinExA. Azlactone beads (Pierce) was pre-coated with rhuWise/rmuWise at pH9.0 and blocked with ethanolamine, then further washed with sample buffer (0.1 mg/mL Heparin in BSA/P20/PBS solution). 10 pM and 100 pM of Ab-A, Ab-C and Ab-E were incubated with various concentrations (0.1 pM-3 nM) of rhuWise/rmuWise at room temperature for at least 10 hours before run through the rhuWise/rmuWise coated beads.
(§2) The amount of the bead-bound muAbs were quantified by fluorescent (Cy5) labeled goat anti-mouse IgG (H+L) antibody (Jackson Immuno Research). The binding signal is proportional to the concentration of free muAbs at binding equilibrium. Equilibrium dissociation constant (Kd) was obtained from nonlinear regression of the competition curves using a two-curve one-site homogeneous binding model (KinExA™ Pro software).

human WISE = target: T2, human WISE (human, UniProt Q6X4U4 24-206); test: KinExA solution equilibrium, rhuWise-coated azlactone beads
T2 construct: Recombinant, made in E. coli or mammalian cells; biotinylated in the ELISAs, amine-coupled to CM5 in Biacore; also called huWise; huWISE
T2 sequence: T1 sequence with S39N, S46T, V159M, A165V, L182M
Method: as §1, §2

[1] = target: T3, T49 tryptic fragment of human WISE (human); test: Biacore peptide competition, 3 nM antibody preincubated with 30 nM peptide
T3 construct: Multiply truncated human WISE from tryptic digestion, isolated by HPLC; the two pieces are held together by cystine-knot disulfide bonds (C1-C5, C2-C6, C3-C7); also called T49 peptide
Method: (§3) To identify which peptides compete with WISE for binding to the antibodies of the invention, rhuWise was immobilized on a CM5 surface with high density. 3 nM of mature antibodies Ab-A, Ab-C and Ab-E were pre-incubated with and without 30 nM peptides and huWise (as control), then injected over the huWise surfaces. As shown in FIGS. 9A and B both T49 and T56.1 peptides blocked the binding of the antibodies to huWISE.

[2] = target: T4, T56.1 tryptic fragment of human WISE (human); test: as above
T4 construct: Multiply truncated human WISE from tryptic digestion, isolated by HPLC; the two pieces are held together by cystine-knot disulfide bonds; also called T56.1 peptide
Method: as §3

[3] = target: T3, T49 tryptic fragment of human WISE; test: Biacore peptide competition (FIG. 9B)
Method: as §3

[4] = target: T4, T56.1 tryptic fragment of human WISE; test: Biacore peptide competition (FIG. 9B)
Method: as §3

B1: Ab-A (antibody, V domains shown)
VH: QIHLVQSGPELKKPGETVKISCKASGFSFTTYGMSWVKQAPGKGLKWMGWINTYSGVPTYADDFKGRFAFSLETSASTAYLQINNLKNEDTATYFCVRGREYYYGSGIAFWGQGTLVTVSA
VL: DVVMTQTPLSLPVSLGDQASISCRSSQSLEHSNGNTYLHWYLQKPGQSPKLLIYKVSNRFSGVPDRFSGSGSGTDFTLKISRVEAEDLGVYFCSQSTHVPLTFGAGTKVELKR
notes: Murine monoclonal antibody from hybridoma, tested in its mature form; The entries may still carry a signal peptide; also called Antibody A; antibody A
binding result (mouse WISE): binds
Kd (human WISE): ~2 pM
binding result [1]: binds
binding result [2]: binds

B3: Ab-E (antibody, mouse IgG1, kappa, V domains shown)
VH: QGQMQQSGAELVKPGASVKLSCKTSGFTFNSHYISWLKQKPGQTLEWIAWIYAGTGGTRYNQKFTGKAQLTVDTSSSTAYMQFSSLTTEDSAIYYCAREGVDGWFTYWGQGTLVTVSA
VL: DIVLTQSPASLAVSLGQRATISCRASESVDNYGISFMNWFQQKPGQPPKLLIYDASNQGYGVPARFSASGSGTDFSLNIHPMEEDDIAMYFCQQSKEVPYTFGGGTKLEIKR
notes: Murine monoclonal antibody from hybridoma, tested in its mature form; polypeptide numbers 26 and 28 and the light/heavy assignment are inferred; also called Antibody E; antibody E
binding result (mouse WISE): binds
Kd (human WISE): ~18 pM
binding result [1]: binds
binding result [2]: binds

Second part, the binder after the results:

binding result (mouse WISE): binds
Kd (human WISE): ~4 pM
binding result [1]: binds
binding result [2]: binds
B2: Ab-C (antibody, V domains shown)
VH: B3 VH with K19Q, N30S, H32T, T44S, Q62R
VL: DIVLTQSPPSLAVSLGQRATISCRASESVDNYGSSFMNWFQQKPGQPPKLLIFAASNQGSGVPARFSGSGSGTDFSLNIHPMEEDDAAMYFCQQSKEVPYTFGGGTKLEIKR
notes: Murine monoclonal antibody from hybridoma, tested in its mature form; also called Antibody C; antibody C

binding result [3]: binds
binding result [4]: binds
B4: Ab-P (antibody, V domains shown)
VH: EVRLVESGGGLVQPGRSLKLSCAASGFPFSNYGMAWVRQAPTRGLEWVASITYDGSITFYRDSVKGRFTISRDNAKSTLYLQMDSLRSEDTATYYCTSSDTTDYYHGGFWFAYWGQGTLVTVSS
VL: DIVLTQSPALAVSLGQRATLSCRASQSVSISGHNLMHWYQQKPGQQPKLLIYRASNLPSGIPARFSGSGSGTGFTLTINPVQADDIATYYCQQSRESPWTFGGGTTLELKR
notes: also called Antibody P

Reference: patent US20090130114A1 (Amgen, published 2009)
